Laboratory results as given in paper PMC7862291 (2021).

B1: wild type human KMO (Hs-KMO), NanoBRET constructs [human] / itself (parent complex)
chain: MDSSVIQRKKVAVIGGGLVGSLQACFLAKRNFQIDVYEAREDTRVATFTRGRSINLALSHRGRQALKAVGLEDQIVSQGIPMRARMIHSLSGKKSAIPYGTKSQYILSVSRENLNKDLLTAAEKYPNVKMHFNHRLLKCNPEEGMITVLGSDKVPKDVTCDLIVGCDGAYSTVRSHLMKKPRFDYSQQYIPHGYMELTIPPKNGDYAMEPNYLHIWPRNTFMMIALPNMNKSFTCTLFMPFEEFEKLLTSNDVVDFFQKYFPDAIPLIGEKLLVQDFFLLPAQPMISVKCSSFHFKSHCVLLGDAAHAIVPFFGQGMNAGFEDCLVFDELMDKFSNDLSLCLPVFSRLRIPDDHAISDLSMYNYIEMRAHVNSSWFIFQKNMERFLHAIMPSTFIPLYTMVTFSRIRYHEAVQRWHWQKKVINKGLFFLGSLIAISSTYLLIHYMSPRSFLRLRRPWNWIAHFRNTTCFPAKAVDSLEQISNLISR

Variants of: B1
Test: NanoBRET; HEK293T cells; + ligand (TMR ligand); n = 6; read off a plot

Row | Variant | response
1 | chain 1 D184A, chain 1 Y185P, chain 1 Q187A | ~78 mBU
